Data reported in PMC11787515, “Resilience and charge-dependent fibrillation of functional amyloid: Interactions of Pseudomonas biofilm-associated FapB and FapC amyloids” (The Journal of Biological Chemistry, 2024).

B1: FapC (C-terminal histidine tag) labeled with Cyanine5 (natural protein)
chain: MGNEGGWHPPKPNPQSNNKGGATALVVDTQQNYNNKVSNFGTLNNASVSGSIKDASGNVGVNVAAGDNNQQANAAALASADASFVFGTATASTSVLQSGYGNTLNNYSNPNTASLSNSANNVSGNLGVNVAAGNFNQQKNDLAAAVSNGQYSTAGSAASQTSTGNTTVNSANYAYGGTYVSLKLNADGSYKGTSDQIGDVYLDTWEGQTHPGGSNTGHIDVDSQAQGAKDLNHDGGAFAFKEKGDVDLKGTVSGFIPAIVGFKTPVTNNASLSNSLQNVSGNVGVNIAAGGGNQQSNSLSIAAGCSSCPAGGESLGF
modifications: Cyanine5 attached by NHS ester to lysine residues (primary amines)
notes: FapC, Pseudomonas aeruginosa PAO1, UniProt Q9I2F0, without its signal peptide; same chain as m2; also called FapC labeled with Cyanine5; labeled FapC; source: E. coli BL-21, labeled on HisPur cobalt resin with Cyanine5 NHS ester, eluted and desalted
B2: FapB from the P. aeruginosa PAO1 strain with an N-terminal histidine tag (natural protein)
chain: DPLASRNRASIDDSGTYRGNFALNQAAGDAQQQSNVRVVAVGSAALVGSDQRQHLQLDASQPIAASASISGAALRGSGILGVNQGAGLGNQQINAFRLSLSNGPESLDDSVLAQSVALTKVSGSATPVPGGRSVSTDDRAFAGSSGVVQVNQSAGVGNQSMNTLSVRVME
notes: FapB, Pseudomonas aeruginosa PAO1, UniProt Q9I2E9; Used as fresh monomers, as fibrils and as sonicated fibril seeds; also called FapB-NterHis; histidine-tagged FapB; source: E. coli BL-21, purified (HisPur cobalt resin, lysis in 6 M guanidinium HCl)

Key:
[1] = target: the molecule itself; assay: fibril formation, pelleting and formic acid dissolution with SDS-PAGE; 30 uM protein, 37 °C, 48 h, incubated individually; fibrils washed by centrifugation at 13,000g, sonicated and treated with formic acid
[2] = target: B2; assay: cell-based or functional assay
[3] = target: the molecule itself; assay: thioflavin T fibrillation kinetics + transmission electron microscopy; each protein alone, 25, 50 or 100 uM, universal buffer (Tris, Bis-Tris, sodium acetate) pH 4-9, 20 uM ThT, 37 °C, orbital shaking 300 rpm; fibrils seen by TEM after 80 h; self-assembly into amyloid fibrils
[4] = target: the molecule itself; assay: transmission electron microscopy of fibrils; fluorophore-labeled FapB and FapC, negative staining with 1% uranyl acetate
[5] = target: B1; assay: fluorescence microscopy of labeled purified proteins (colocalisation of monomers with preformed fibrils); Cyanine3-FapB and Cyanine5-FapC; monomers (0 h incubation) mixed with preformed fibrils (72 h incubation) of the other protein; imaged immediately after mixing and after 24 h; Leica DMI8, 20x; conditions: both partners purified

Binder	binding result [3]	binding result [4]	also measured
histidine-tagged CsgB of E. coli (natural protein, E. coli K12, UniProt P0ABK7 22-151, looked up, CsgB (curli minor subunit), E. coli K12, UniProt P0ABK7; Expressed from a pET11a plasmid; the construct is not described further; source: E. coli BL21-DE3 slyD KO, purified (nickel-nitrilotriacetic acid beads, from 7.5 M guanidine hydrochloride)) AGYDLANSEYNFAVNELSKSSFNQAAIIGQAGTNNSAQLRQGGSKLLAVVAQEGSSNRAKIDQTGDYNLAYIDQAGSANDASISQGAYGNTAMIIQKGSGNKANITQYGTQKTAIVVQRQSQMAIRVTQR	–	–	binding result [1]: binds
FapC from the P. aeruginosa PAO1 strain with a C-terminal histidine tag (natural protein, Used as fresh monomers, as fibrils and as sonicated fibril seeds; also called FapC-CterHis; histidine-tagged FapC; source: E. coli BL-21, purified (HisPur cobalt resin, lysis in 6 M guanidinium HCl)) MGNEGGWHPPKPNPQSNNKGGATALVVDTQQNYNNKVSNFGTLNNASVSGSIKDASGNVGVNVAAGDNNQQANAAALASADASFVFGTATASTSVLQSGYGNTLNNYSNPNTASLSNSANNVSGNLGVNVAAGNFNQQKNDLAAAVSNGQYSTAGSAASQTSTGNTTVNSANYAYGGTYVSLKLNADGSYKGTSDQIGDVYLDTWEGQTHPGGSNTGHIDVDSQAQGAKDLNHDGGAFAFKEKGDVDLKGTVSGFIPAIVGFKTPVTNNASLSNSLQNVSGNVGVNIAAGGGNQQSNSLSIAAGCSSCPAGGESLGF	binds	–	residual FapB monomer on SDS-PAGE after 9 days of coincubation 1:1 with FapC at pH 5, without formic acid, relative to untreated monomers (9% for FapB alone) [2]: 52%
B1	–	binds	–
B2	binds	–	–
FapB (N-terminal histidine tag) labeled with Cyanine3 (natural protein, Cyanine3 attached by NHS ester to lysine residues (primary amines), FapB, Pseudomonas aeruginosa PAO1, UniProt Q9I2E9, 170 residues without the signal peptide; same chain as m1; also called FapB labeled with Cyanine3; labeled FapB; source: E. coli BL-21, labeled on HisPur cobalt resin with Cyanine3 NHS ester, eluted and desalted) DPLASRNRASIDDSGTYRGNFALNQAAGDAQQQSNVRVVAVGSAALVGSDQRQHLQLDASQPIAASASISGAALRGSGILGVNQGAGLGNQQINAFRLSLSNGPESLDDSVLAQSVALTKVSGSATPVPGGRSVSTDDRAFAGSSGVVQVNQSAGVGNQSMNTLSVRVME	–	binds	binding result [5]: binds
FapC from the P. aeruginosa PAO1 strain with an N-terminal histidine tag (natural protein, FapC, Pseudomonas aeruginosa PAO1, UniProt Q9I2F0; cloned into pET28b with the histidine tag at the N-terminal site; This construct probably holds the same stretch without the signal peptide; also called FapC with histidine tag at the N-terminus; source: E. coli BL-21, purified (HisPur cobalt resin, lysis in 6 M guanidinium HCl); not shown: His tag, N-terminal, kept) GNEGGWHPPKPNPQSNNKGGATALVVDTQQNYNNKVSNFGTLNNASVSGSIKDASGNVGVNVAAGDNNQQANAAALASADASFVFGTATASTSVLQSGYGNTLNNYSNPNTASLSNSANNVSGNLGVNVAAGNFNQQKNDLAAAVSNGQYSTAGSAASQTSTGNTTVNSANYAYGGTYVSLKLNADGSYKGTSDQIGDVYLDTWEGQTHPGGSNTGHIDVDSQAQGAKDLNHDGGAFAFKEKGDVDLKGTVSGFIPAIVGFKTPVTNNASLSNSLQNVSGNVGVNIAAGGGNQQSNSLSIAAGCSSCPAGGESLGF	binds	–	–
